According to the DeepSol protein solubility set:

test: soluble on expression in E. coli; label from the status in PepcDB or PDB records

Soluble on expression in E. coli, not soluble:
MGSDKIHHHHHHMTMKTRDKILLSSLELFNDKGERNITTNHIAAHLAISPGNLYYHFRNKSDIIYEIFQEYEKLVDYYLDIPEDRPITLEDMTFYLESVFDGLWSYRFFHRDLEYLLDSDPRLRQDYREFTNRCLAAINRIFAKLADAGIIQPQPEDLRSAMSLNVWLVITNWMAFLKTAHAAEEPASLSLTELKQGIYQVLTLEVPYLTPEYRERVLALREKYRPTLPEAQGISGVEA
MGSDKIHHHHHHMTMTFALRDPAQVLARALELRVDVSPETAEVEHELGALHDRMRRPGDRLHDMPHMPSGLPGLRLRYREADGEIFVYVEDVASRQLAGYTVFNRLIEVGRRADPWVRSPHTKFAPPYQRLGLASGLYRWALDGGLCLLSGARQSAGAHALWQSLGRRYALGYVDLRYKTLTSLGEQVSAVVKDDLHTRMLLLGHGWTLGRFKEATGMY
MGSDKIHHHHHHMTNDSIKSETEVAPRDQSAVGTIPWAIKGELILNCNCTVFCPCVVSLGKHPPTEGYCQAWAGVRIDEGHYGDADLSGLNVGLVLEIPGLMARGNWKAAAYIDERASDAAYEGLIDVFSGKARGTTGLFKVLVSEFLGAERAPVLFETEGKTRRLIVGYYIHGEVVPVGGADSDQDIVVTNTEYWMGPDITVATATKGRVRAFGRVWDFDGRSAEICQIDWKGPR
MGSDKIHHHHHHMTQDAQCTRRTDWIPLAREVLDIEIEGIAAMRDRLNGGFVDALTLMARCTGRVVITGLGKSGLVGRKLAATLSSTGTPAFFLHPVEGAHGDMGMLRSDDVIIAISNSGETDELNAILPALRSLGASLIAMTGGLESTLAKSADVVLDTGVRREACPLNLAPTASTTAVLAMGDALAVCLIHWKSFTENDFLRFHPGGSLGHRLSMRVESLMHTENLPVVRETVRTGEALRVLDEGRLGTVLVTDGQGRLSGILTDGDVRRMVCREAGVETASPVANVMVRSPLTARKEFSVAQLIDMMEERAITVLPITGDDGLLLGVVHLHDLLGKGGVKFSR
MGSDKIHHHHHHMTRADYLNQLEQALFQLHPSARQEALDYFNEYFDEKDNDEEAIIELGTPDEAAKEIIANLPEDALIPEKDQASPHSSKPFDFNFDFDFQFDWENFFNNFKHSAYQARERIKLTSKIEELPEFSNLQISLEDQALSVQSYEGEAVLLHNPVSEDGSYQAFDYQLVQDSLYISSKPTPNHLYFSNNQISSAILKIPKKLLPLTNLNLKTADSSLTIVDVQVCEQMVVNAKDSSISMTKVSCPSSALQLEDSTLTISDGQMSELKLEASDAVITLSSMSLSDARITLEDCVWKLKDFVLEKSLNCQAEDSVLTYKPSTDISLDIWEEDSSLKLPKDKAFTMMKEGDITHLSYKQENSPAQLVIHCQDCQLSVG
MGSDKIHHHHHHMTRFRSTLPQVNGTTLLTDSGLETTLIFHDGLDLPCFAAYPLMETAEGRAVLRDYFQRHLAIASERSAGFLLESPTWRASRDWGAQLGHGPDDLARLNNDAIAMLVDLRDDATGVGPIVISGNIGPRGDGYVADAAMTADEAEDYHAEQIGWFAQSEVDLATAVTLSTVAEGVGVIRAAHRVDLPVVVSFTTETDGRLPDGTPLGRAIEQTDALTDGAAAYFMVNCAHPDHFRPVLDTGTAWLNRIGGVRANASRMSHAELDEAETLDAGDPAELGRDYRDLRQILPNLTVIGGCCGTDHRHIEAMADRCLGHNAA
MGSDKIHHHHHHMTRILVLYFTRGGHTAKIANAIAEQLTLRGAKVDLVDINSAAATRINWSDYQLVALGACVLYGTYDKSVFQFIEQHVQALSFLPNSFFCVNVVARNPEKRIPENNKYLQKFITLSPWTPADLKIIAGKVDYPSWPWYDRLMIQLIMKITKGPTDPKAVIDYTDWEDVKVYADHLLTLVEVAEPA
MGSDKIHHHHHHMTRLEIVDSKLRQAKKTEEYFNAIRTNIQFSGKENKILAITSVREGEGKSTASTSLALSLAQAGFKTLLIDADTRNSVMSGTFKATGTIKGLTNYLSGNADLGDIICETNVPRLMVVPSGKVPPNPTALLQNAYFNKMIEAIKNIFDYIIIDTPPIGLVVDAAIIANACDGFILVTQAGRIKRNYVEKAKEQMEQSGSKFLGIILNKVNESVATYGDYGNYGKRDRKRK
MGSDKIHHHHHHMTRTSPTHAKLAQPIVHAPGLFHSLAPGERKRDKLDVTHVAGDTTVRFVGFEPLDSTDLRVLQGLIALATAGLRNIRRLLRDGQSLRTSLDLKGDAQDERTVAARFTLASLADMAGFDRGGFGCRQMRASLQRLSNVTVLVDRPEFEGAFRLVSGYRLDKHTGELVVSISPLGTTAILGRQGYLRLNMDEVRRIHGEVAHLIHSRLHWVNQGDRRPVNMDTLCSYAYVGVRTGSALRKRRMAVRQALKELMDVGWTVTEKYPGTYLIGRPRRASDQGELVTRAGVNW
MGSDKIHHHHHHMTSDIKRHIKELISGSENSEVEFKSAKGGLPESFWETFSAFANTNGGIIVLGIKEKNGIFMPDGLNKQQIDTYKKRFWDCAHNKEKVSATMLAERDVYETDIDGNFVLLFRIPRASYDIRPVYLTRNPFGNTFKRNHEGDYHCTDSEIRQMFADAHHATLPFDNQILPNYSMNDIDVATLKGYRQRFMLRKDNHPWNELDDFNFLCKIGAYRVDRENGQEGFTRAGILMFGKTESITDQVCCPWYFVDYQEKLSNNTNERWSDRIYADGSWNANLYQFFFKVYNKLSQTLPAPFLLNGIERTEETSAHIAIREALVNCIVHCNYAEQGNILIVREKDKITFRNPGRMLISVDDFYVGSQSVCRNPIIQKFFIQLGYGEKAGSGADYIVKGAIDNKWHIPALVEHVQPDTVSLYLYLNDANDTSYDANNTSYDANDTSYDANDTSYDANDTSSNEHGQRLTKETLINRVLEICEDWITIDEISEKTGKSRQYLRGRIIPEMLKLGLLEKQYPDASTSPNQKYRKKQ
MGSDKIHHHHHHMTTARRQLIDAESTPFYHVINRCVRRAFLCGEDALSGRSYEHRRDWIVDKIKQLSSVFCIDVCAYAVMSNHYHLVLKINLATQKRLSHFEVIERWTQLFFGHPVAAKFLKGDSLEEGERLLLDSLIGEWQERLGSISWFMRCLNEEIARKANREDGCKGVFWEGRFKSQALLDEQALLACMMYVDLNPIRAGIADSLQGSDYTSIQERIEELASPQSAPVALKPLLAFDGAAIATEQCGIPFHFADYLELIDWTGRAVREDKRGFIATTRPKLLAELGISDDAWITSAKEFRRQYSGISGRWDAMCAMKAKCGGKWCRGKQQSASIHPD
MGSDKIHHHHHHMTTQAKQPSRFDRNPLASENERLILDIVRRHGPIARSVITTHTNLTQQSVHRLIEGLIERGLLRTGAPLKGARGQPSPTIELAVESVASLGISINTDSAIICLADFSCGVIAQKKLELLPLSREATLVSLSRTLDEMLEAHNLPRDRLLGLGFAMSGFSVADDRIFNAPEPLQDWSLMDLRPILEQTFQLPVWQENNATTGAIGESLQGVGRWCQTFAYLSFNYGFGGGLILNGQPFYGFHGNAAELSGIYDPTEAPRRPALQYLLRSLQDHGIEIDSVDTLYRTFDPGWPGVEAWLEATMPQVERLVAVLIAVIDPQAIVFGGQLPPALGAMMIERCPMPSQRVHRYGVGPKEARLVLSEVKGDAAVIGAALLPLKMRYFI
MGSDKIHHHHHHMTTSEAPQCPYHLKQSLTRRPTAGARPSAAIEVDGNGIYRIHAFQAARDILRSNSVRQAGFMSESARGVRGLGNPPVLFEEGEKHHEMRRSTARYFTPTQVAEYQPMIAALADDLIAELIRRGEMNLDDLSLRLAVNVAARVVGLTSSRVPGLERRVISFVESGGDSEPSSTQPRKSRLESLRQQAKMALFYFLDVKPAIAARRQQRQDDLISHLLDREYNDLEILTECLTYGTAGMVTTREFISVAAWHLLRNPGLRAEYVHGTEPERHAILHEILRLEPVVTMLYRRAEGELTVAGQTIPAGSLLALHLQEANTDPAVAGADAEQLCPGRTLPRGVAPQVLAFGDGHHRCPGAFLAIKESDVFLRRLLVWQDLEIVSEPEVNSNEVVKGYELRGFRVRLGRAARP
MGSDKIHHHHHHMTTTPFNRLLLTGAAGGLGKVLRERLKGYAEVLRLSDISPMAPAAGPHEEVITCDLADKAAVHTLVEGVDAIIHFGGVSTEHAFEEILGPNICGVFHVYEAARKHGVKRIIFASSNHTIGFYRQDERIDAHAPRRPDSYYGLSKCYGEDVASFYFDRYGIETVSIRIGSSFPQPQNLRMLCTWLSYDDLVQLIERGLFTPGVGHTIVYGASDNRTVWWDNRHAAHLGYVPKDSSETFRAAVEAQPAPAADDPSMVYQGGAFAVAGPFN
MGSDKIHHHHHHMTVADLVAGLRESRGFRHKTDIVDVVGSLAKRLPRGKRDLAQAVALGDDCAALADGDGYLLFAIEGMVSDFVSAMPWFAGYSSVMVNVSDIYAMGGRPLAVVDALWSQGIGAAEEVLAGMAAASVAYGVPIVGGHTNTRSEAAQLAVSIIGRARALLSSFNAKPGDSLMMAVDLRGRFEEPYPFWNASVDAPPERLRADLELLPQLAENGLCDAAKDISMAGTLGTALMLLECSQVGARIDLACIPKPEGVPLERWVSAFPSFGYLLSVRPEHVETVRAKFSARSLACSVIGSVDATSQVVLHRQDDAATLWDFQREPFIIGKDEVK
MGSDKIHHHHHHMTVGTLPIWSKTFSYAIRSLCFLHIIHMYAYEFTETRGESMLPTLSATNDYVHVLKNFQNGRGIKMGDCIVALKPTDPNHRICKRVTGMPGDLVLVDPSTIVNYVGDVLVDEERFGTYIKVPEGHVWVTGDNLSHSLDSRTYNALPMGLIMGKIVAANNFDKPFWDGSIRNIWGFKWINNTFLDVQAKSN
MGSDKIHHHHHHMTVHDRIVAEPFSLQRRNPAGGTKPLTSWGFANETDVLTDVLLGSPNFLRHLSTSSLSRKHLREAPCNVQIAQAQHKDLVAAYEHFGVNIHWHEPTPELPMQVYSRDSSVMTPYGAIITAMANWWRRGENYAAIRTYEKLGIPIYDMVTAGTFEGGDFNVIEDGVVLIGCGGARTQEEGARQVQAWFEKEGWETRIAFIDEYYVHIDLMVVPIAEKLTAVCLACTEPGIVDWLKGKGHEIIDVPFQDTMALGCNFMSLGKDRVIAPTSSQTLIGQLKARGFEVAAVDMSEISKTGGGIHCMAQALKREAA
MGSDKIHHHHHHMTVNDYALVTGASGFLGSAVVRQALARGWRVRALVRATSPRANLDGLPVEVFEGDMRDPAALTSAMRGVRYLFHVAADYRLWAPDPEEIVRTNVDGTMAVMEAAQEAGVERVVYTSSVATLRVAGASAPVDETAAMTPHEAIGAYKRSKVLAERVVERMVAERGLPAVIVNPSTPIGPRDVRPTPTGRIIVEAATGKIPAFVETGLNLVHVDDVAAGHFQALERGRIGERYILGGDDVMLQQMLRDIADLCGRRPPTVQLPRWPLYPLAHAAEAVARITRKEPFVTVDGLHMSKYRMFFRSDKARQELGYQPRPYIDGLRDALDWFREAGYLR
MGSDKIHHHHHHMVAMRIAIIGANGQLGTDLVEVFGNDPEFEVVPLTHKDLDVTIPESLKVLKEIKPDVLINTAAYVRVDDAELYPEKAFAVNAIGALNVARIANEIDAVNVYISTDYVFDGEKGEPYTEEDVPNPINVYGVSKYTGEIFTRNYSPKHYIIRVASLYGKAGASGKGGNFVEWVIEKAKHGEELKIVDDQFMSPTYTKDVARTLKEFLKLRSEFGVYHMVNEGFCSWYEFTEAIFDVLGWNVEIKPIKSNELNRLAKRPRFSALKNEKLEKIGLRMRHWREALEEYLKEKGYV
